Reference: patent publication US20180117114A1, “PEPTIDES THAT MODULATE THE EFFECT OF THE CRMP: NEUROFIBROMIN COMPLEX ON SYNAPTIC TRANSMISSION” (Indiana University Research and Technology Coporation, priority 2015, published 2018)

Assays:
Assay in all cases: cell-based or functional assay
[1] = molecular target: CaV2.2 expressed in human embryonic kidney 293 (HEK293) cells
[2] = molecular target: CaV2.2 in transfected neurons
[3] = molecular target: CaV2.2 in dorsal root ganglion neurons from Nf1+/- mice (mouse) (UniProt O55017)
CaV2.2 in dorsal root ganglion neurons from Nf1+/- mice (mouse), sequence (O55017 whole entry): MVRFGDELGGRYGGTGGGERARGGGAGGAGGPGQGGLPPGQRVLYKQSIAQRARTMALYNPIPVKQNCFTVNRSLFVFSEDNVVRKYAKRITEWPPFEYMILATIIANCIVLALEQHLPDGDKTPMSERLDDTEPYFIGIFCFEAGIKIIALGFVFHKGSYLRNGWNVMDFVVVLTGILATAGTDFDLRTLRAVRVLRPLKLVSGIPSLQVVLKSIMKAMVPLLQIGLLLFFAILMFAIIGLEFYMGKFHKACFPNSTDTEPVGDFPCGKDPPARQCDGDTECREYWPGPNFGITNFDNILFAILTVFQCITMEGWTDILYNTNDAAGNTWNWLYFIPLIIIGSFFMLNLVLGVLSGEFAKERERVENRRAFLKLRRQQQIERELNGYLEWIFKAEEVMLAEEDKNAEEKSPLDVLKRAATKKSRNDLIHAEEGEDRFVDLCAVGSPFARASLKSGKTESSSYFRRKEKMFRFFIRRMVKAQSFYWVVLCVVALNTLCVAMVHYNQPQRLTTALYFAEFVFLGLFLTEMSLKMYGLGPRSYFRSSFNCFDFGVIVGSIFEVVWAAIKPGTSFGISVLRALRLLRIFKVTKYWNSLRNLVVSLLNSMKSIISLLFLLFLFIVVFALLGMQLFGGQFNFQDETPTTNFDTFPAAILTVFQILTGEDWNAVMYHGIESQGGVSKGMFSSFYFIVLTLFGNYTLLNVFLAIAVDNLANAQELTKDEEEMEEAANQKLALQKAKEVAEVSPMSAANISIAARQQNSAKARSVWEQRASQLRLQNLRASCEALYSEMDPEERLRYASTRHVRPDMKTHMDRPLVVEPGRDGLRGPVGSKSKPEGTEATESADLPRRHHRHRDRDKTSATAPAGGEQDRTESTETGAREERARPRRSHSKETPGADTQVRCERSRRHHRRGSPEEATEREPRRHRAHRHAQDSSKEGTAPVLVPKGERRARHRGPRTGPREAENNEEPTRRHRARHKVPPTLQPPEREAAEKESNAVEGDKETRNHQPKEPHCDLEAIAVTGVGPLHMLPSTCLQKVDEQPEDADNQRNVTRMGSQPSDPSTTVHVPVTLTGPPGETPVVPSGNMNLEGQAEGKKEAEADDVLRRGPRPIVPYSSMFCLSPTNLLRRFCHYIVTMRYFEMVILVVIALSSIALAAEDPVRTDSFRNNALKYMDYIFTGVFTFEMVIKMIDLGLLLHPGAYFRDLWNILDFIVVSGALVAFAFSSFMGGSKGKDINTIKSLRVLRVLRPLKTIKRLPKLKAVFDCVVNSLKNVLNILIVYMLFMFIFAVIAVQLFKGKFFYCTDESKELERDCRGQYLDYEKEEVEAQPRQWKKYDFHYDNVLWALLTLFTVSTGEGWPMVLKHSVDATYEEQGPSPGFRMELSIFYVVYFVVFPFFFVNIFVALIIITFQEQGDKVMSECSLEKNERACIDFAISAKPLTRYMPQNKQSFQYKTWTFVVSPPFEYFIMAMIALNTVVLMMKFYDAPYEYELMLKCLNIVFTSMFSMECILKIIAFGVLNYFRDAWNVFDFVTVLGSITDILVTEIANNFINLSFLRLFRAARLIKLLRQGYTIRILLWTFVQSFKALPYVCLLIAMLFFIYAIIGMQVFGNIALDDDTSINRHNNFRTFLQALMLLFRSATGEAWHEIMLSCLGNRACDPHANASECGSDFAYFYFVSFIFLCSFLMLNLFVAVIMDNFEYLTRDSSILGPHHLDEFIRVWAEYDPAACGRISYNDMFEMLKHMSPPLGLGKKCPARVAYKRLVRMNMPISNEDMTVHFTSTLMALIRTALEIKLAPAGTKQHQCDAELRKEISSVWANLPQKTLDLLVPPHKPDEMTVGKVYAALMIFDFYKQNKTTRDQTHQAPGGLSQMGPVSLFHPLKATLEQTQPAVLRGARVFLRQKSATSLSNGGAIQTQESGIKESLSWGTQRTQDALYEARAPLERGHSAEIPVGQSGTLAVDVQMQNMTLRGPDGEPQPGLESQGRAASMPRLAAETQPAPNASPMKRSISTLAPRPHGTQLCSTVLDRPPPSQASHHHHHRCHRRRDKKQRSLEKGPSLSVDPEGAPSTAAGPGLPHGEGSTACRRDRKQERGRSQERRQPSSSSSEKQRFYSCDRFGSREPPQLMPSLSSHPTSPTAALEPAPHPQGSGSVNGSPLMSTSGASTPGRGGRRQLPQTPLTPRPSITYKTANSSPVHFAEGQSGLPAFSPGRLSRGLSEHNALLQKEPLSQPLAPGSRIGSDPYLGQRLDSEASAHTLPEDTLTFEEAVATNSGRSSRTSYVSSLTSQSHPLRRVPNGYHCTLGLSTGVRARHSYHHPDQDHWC

cells exhibiting CaV2.2 staining on the surface [1] [%]	reduction of peak Ca^2+ current density compared to CRMP-2 neurons (whole-cell voltage clamp) [2] [%]	Substance	reduction in KCl-stimulated CGRP release compared with TAT-control (10 µM TAT-CBD3) [3] [%]
10	64	CBD3 peptide fused to enhanced green fluorescent protein (EGFP)	
		TAT-CBD3 (peptide)	85
